Molecular target: the molecule itself
Assay: native gel or EMSA

B1: Fenna–Matthews–Olson antenna protein (FMO) (natural protein, UniProt Q46393 1-366, looked up)
chain: MALFGSNDVTTAHSDYEIVLEGGSSSWGKVKARAKVNAPPASPLLPADCDVKLNVKPLDPAKGFVRISAVFESIVDSTKNKLTIEADIANETKERRISVGEGMVSVGDFSHTFSFEGSVVNLFYYRSDAVRRNVPNPIYMQGRQFHDILMKVPLDNNDLIDTWEGTVKAIGSTGAFNDWIRDFWFIGPAFTALNEGGQRISRIEVNGLNTESGPKGPVGVSRWRFSHGGSGMVDSISRWAELFPSDKLNRPAQVEAGFRSDSQGIEVKVDGEFPGVSVDAGGGLRRILNHPLIPLVHHGMVGKFNNFNVDAQLKVVLPKGYKIRYAAPQYRSQNLEEYRWSGGAYARWVEHVCKGGVGQFEILYAQ
**Q.** Which “stoichiometry N” value does the source give for B1 here?
**A.** The value was 3.

— paper PMC4372062 (Biochemistry, 2014)
